assay: soluble on expression in E. coli; label from the status in PepcDB or PDB records

Sequence | soluble on expression in E. coli
MSFEEKTFKWLMNQKFYHGYLPREDLPYVLKKKGDFIFRVTERTVGKEQKKDIVLSIAWPTESVAMIDTKDIKNYLIERSANSVWLDLKISFHSIDALYNHYRKNELVHPNLRIKLGRPICLFFWEFKHSQINLIKKVGKGAYGEVFKGTVTRGNKTFNGAIKAMRKDLDAGNEKMKEVMAEARLMRSLNHPNIVRCRGIAVLEQPVYIVIEFINGGGLDSYLKKNSQTLTMDQKNRMAISAAWGIEFMHSHDIIHRDIAARNCLYDNKNLVKLSDFGLSRKGSVYRMKKAMKMPTKWLAPESLTTFTFSGASDVYTFGVLLYEIYTCQEPYLAVKAGEAKRYILSGAFPNFTKQAPPELNEIVKKSIYQLDPAKRDTMKVIVKKLETWLDVELVLDENEKPDIDPESNRFNGNMPIRVDSSTKKMRNDTVCIPPPETATVALPNSLPPITVSARSKNSRKSTLKRKKKKTSKDSSMTTTTTNTNESEPPADGQVISSETMSVANKMVSDAKGGSPEMLTPSLEELKPSSQENETFLNEKNSTAKN | not soluble
MSFRVSASSSVKPEKDIRIGLLGASGYTGAEIVRLLANHPHFQVTLMTADRKAGQSMESVFPHLRAQKLPTLVSVKDADFSTVDAVFCCLPHGTTQEIIKELPTALKIVDLSADFRLRNIAEYEEWYGQPHKAVELQKEVVYGLTEILREDIKKARLVANPGCYPTTIQLPLVPLLKANLIKHENIIIDAKSGVSGAGRGAKEANLYSEIAEGISSYGVTRHRHVPEIEQGLSDVAQSKVTVSFTPHLMPMIRGMQSTIYVEMAPGVRTEDLHQQLKTSYEDEEFVKVLDEGVVPRTHNVRGSNYCHMSVFPDRIPGRAIIISVIDNLVKGASGQALQNLNIMLGYPETTGLLHQPLFP | soluble
MSFSGVKVSPECLEAFQELKLGKSLRYVVFKMNDTKTEIVVEKKSTDKDFDTFLGDLPEKDCRYAIYDFEFNLGEGVRNKIIFISWSPDVAPIKSKMVYSSSKDTLRRAFTGIGTDIQATDFSEVAYETVLEKVTRK | soluble
MSFTTISVIGLGYIGLPTAAAFASRQKQVIGVDINQHAVDIINRGEIHIVEPALGNVVKMAVEGGFLRATTTPVEADAYLIAVPTPFKGDHDPDMAYVEAAAKSIAPVLKKGALVILESTSPVGATEQMAGWLAGMRTDLTFPQQAGEQADVNIAYCPERVLPGQVMVELIKNDRVIGGMTPVCSARASALYKIFLEGECVVTNSRTAEMCKLTENSFRDVNIAFANELSLICAEQGINVWELIRLANRHPRVNILQPGPGVGGHCIAVDPWFIVAQNPQQARLIRTAREVNDGKPHWVVDQVKAAVTDCLAATDKRASEVKIACFGLAFKPNIDDLRESPAMGIAQSIARWHSGETLVVEPNIRQLPKKLDGLCTLAKLDAALAAADVLVMLVDHDEFKAIPGDAVHQRYVVDTKGVWR | soluble
MSFVVANTEFVSGAAGNLARLGSMISAANSAAAAQTTAVAAAGADEVSAAVAALFGAHGQTYQVLSAQAAAFHSQFVQALSGGAQAYAAAEATNFGPLQPLFDVINAPTLALLNRPLIGNGADGTAANPNGQAGGLLIGNGGNGFSPAAGPGGNGGAAGLLGHGGNGGVGALGANGGAGGTGGWLFGNGGAGGNSGGGGGAGGIGGSAVLFGAGGAGGISPNGMGAGGSGGNGGLFFGNGGAGASSFLGGGGAGGRAFLFGDGGAGGAALSAGSAGRGGDAGFFYGNGGAGGSGAGGASSAHGGAGGQAGLFGNGGEGGDGGALGGNGGNGGNAQLIGNGGDGGDGGGAGAPGLGGRGGLLLGLPGANGT | not soluble
MSGAEQKVAYSLVSSGSLMSVNPGMARWIKELFCHNERVVLTGDWKHGFLSLTAVGATNVGSIRIHFN | not soluble
MSGDIPLHQLQPNMNSFSVTVIVLDPGIHRRTQTGTIISMKVADASGSINASIMNPEFNETFKPGDILKFRGAYTSIYQGGLTLSVGKSGECKKVGEFMMVFSETPDISMMPLPAGVMDRRNERMQSPAGRYSRPSN | not soluble
MSGEVGSNECLVSTNEVQEDSPAVTESSSANGSSPVRRGRGRPPKGTKVPKVKPAPKPYSGAPRGRPRKSDQVAKSPVAKSPVASSSADASPKRSRGAPKSYAEDVAATKPAKTDVATPALAALTGEKKGRGRPKKN | soluble
MSGGEAQGKRKQWQRWLSPRYVWRRLRHNIGPKLVSLGAALVLWSVSTGDQRAQVQQSYDVPITVRDTTGASGSDERRAVSDLNPETVRVTLTGRPERLNELRPSNIEALLDVTGVPEGSFNRPVQIVAPSNTVLSKQVPERVQGFVDSELSRTLTVTLGVASPAENSLPRFEVRPSEVQATAPSRVLNQVTRVVTSPVDLDPGEEREAPLIALDSRGRVVEPVTLHPASVSVQRLDTGTLPVKTLPVVLGAPPASLRVQSQTLQPRTVRVVAAPELLGRLREVSGQVDYRVGSSTLPVTLRLPDGAQALETVSVSLVVERIKAPDPGAGAPTQQKSGASSSSGGNLEHHHHHH | soluble
MSGGGIIPRGGGYSKRRGRGRRGGGNGGFRDDIRDNQSDRHLSPDRRSNHSEDRHEHRFNNYRQQNRPNSRTPSPSNHNQVQTYRNNPFDARPALSSNDRDQGRNRFSPPSFRRDGRDSDRNGYHEKEEEPTRGSRNDLRTILKPTDKEAARTWKLRIADAEEAIRRAEFQLRRAKMDHEALLEAYKEYTETTCPQELLKPNW | not soluble
MSGNYDKNNINNFIDKNDEHDMSDILHKINNEEKKYEEIKSYSECLELLYKTHALKLGLDNPKKLNESFGHPCDKYKTIHIAGTNGKGSVCYKIYTCLKIKKFKVGLFSSPHIFSLRERIIVNDEPISEKELIHLVNEVLNKAKKLYINPSFFEIITLVAFLHFLNKKVDYAIIETGIGGRLDATNILTKPEVIVITSIGYDHLNILGDNLPIICNEKIGIFKKDANVVIGPSVAIYKNVFDKAKELNCTIHTVVPEPRGERYNEENSRIALRTLEILNISIDYFLKSIIPIKPPLRIQYLATEQIQHIKKKFSPDNLEHNVQYPLAVILDVGHNETAIDRLCTDINYFHKGQNIRICISITKPRNLSVFHPFIAQFGDTLKDIFYLPSLNERTYDFEEIVEMLNNEEEIKNEIKELILSSSKKVGKWLAHEKQGNINEEDALKLYKRGCIPLIIKNAFLECCKDNSILLVCGTFFVFDEVLNVFDIHSDMQDTIFMNEPS | not soluble
MSGPVRTRRILEELGPTYIKLGQLLSMRRDLVPLEYAAEFSKLQDDAPSFGFEEVELIIREELGLPVEDLFESFEKKPLACASIGQVHRAKLKNGDDVVVKVQRPGIKEVIESDLDIMYSLSRLLTEHIPEARLYRPVELVDELSRSILAEIDYSQEGWNTDRFAENFKDSEQIHIPKVYWDYTGTRVLTLEYIEGIKGGRVDLLEKLEHHHHHH | not soluble
MSGREFLQKLLDGERVEWKALGEIIQLEKGRQLNKDLLSSSGRYPAYNGGMSYSGFTDSYNYSENKTIISQGGASAGFVNFVTTKFYANAHCYVVLPDTEVVDNRYIYHFLKLNEERLTSCQHGAGIPALRASEITSLKIPIPCPDNPKKSLAIQAEIVRILDAFTELTAELTAELTARKKQYAYYRDRLLTFTTPPYGHPSKGGELFSLFGHPSEGGELFTPYGHSVEERELNSPSLKGWQAQPDGVVPVEWKTLGEVGHFIRGSGIQKSDFKASGVGCIHYGQIHTHYGTWTTETKSFIDPEFANRLKKAKPGDLVIATTSEDDDAVAKAVAWIGTEDVAVSTDAYIFRHTANPKYMSYFFQTDMFQEQKKPYITGTKVRRISGDNLAKILIPIPPLAEQERIVAILDQFDALTNSLTEGLPREIELRQKQYAYYRDLLFSFPKASFGGVPEGRDQFPSFGGVPEGRGGLNALEHHHHHH | not soluble
MSGWNAYIDTMTAAAPSIKRCAIVGAADGSVWARTEADNVFKASEEELKTFVALFNDVTQVPAKGADIEGVHYVVPRTEESLIFGKKENTGFFAVKTKSAVLIAVYEGPNEVAAQVRKAVESMQTYLNNAGY | not soluble
MSHAVTIEEPQAQPQVSQTRYRERSRAGSHISSNRAYDFLYDPLFIVSSEKDHTQANIQATLIRSRLRKVPRFKTMFSNLIHYPRYSLYWSKSDPVPPFISREWKGHKEKHREALRQLTTTDASFQMPKEVYEDPEVTGKNRYKYFERPFLPFFQQMPFNVVYAVSKAEPYTFPPTSTKHLSIPSKSTVGTQTDYRDADVQTDPYSPEYVVCQDSIPELLTLATLTWGRGLPAGQAEVEMIERAREKRAWEASLPALSDTSQFEKRRKMMNEMERKEWAFREQEIEKLQEIRLEVLKELLRKREENQNEVNMKHLNARWSKLQEGKEAKMAVIYLQKLLRGRVIQNMMFEGKEKRLELIQELRTCHALQEDEKLVKKAEKQVTLALQRQRNLHEHKVSLVENHLAGLEGRALADMFDFLSKELVRLQEERRIHAFVMLAERQRRVREAEESGRRQVEKQRLREEDEIFKEVVKVHHSTISSYLEDIILNTEANTAEEQARAEIEKMAEKINDIAYEMESRRTYLQSEEIVAELVYSFLIPEVQKYFVKEKVRNAQRKHILAAHQIIHSYTESMVQKKLTEGEQDEASNAAMLLEKETQNENNS | not soluble
MSHVSTLRRALLGALLLAPAAALANTPIPIDVWRTPTCGCCEDWLQHLRSNGFEVRAHMVEDTAPVRSQAGMPARYGSCHTARVQGYTVEGHVPAADIRRLLRDKPRAVGLTAPGMPIGSPGMDGPAYGGRRDAYDVLLVQPDGSARVFQAYR | not soluble
MSIEKLKAALPEYAKDIKLNLSSITRSSVLDQEQLWGTLLASAAATRNPQVLADIGAEATDHLSAAARHAALGAAAIMGMNNVFYRGRGFLEGRYDDLRPGLRMNIIANPGIPKANFELWSFAVSAINGCSQCLVAHEHTLRTVGVDREAIFEALKAAAIVSGVAQALATIEALSPS | soluble
MSIFNKDALSSFFGLSGEEDDYYDNYEEYEERKAVNEPPRRAARPKPQRPVQQQESYSQPAYTQQSEPVVEKPSARYRSAEAHQERDTQQAAYTEKKVVSMRSSNQSATTNTRRAQESTANAKTHKITIIEPRVYSEAMSIAKHLFAEEAVLVNFTLVEEDQARRIVDFLTGTVYALDGDIQRVGNEIFLCTPANMEIDSATAQSLANKQFFDFLEHHHHHH | not soluble
MSIILYTANDGTAQFALQEFGGQLWLTQADMAELYQTTKQNISKHIKTILAEQELEEKATVNFQLTVQNENGRKVNRKIAHYSLPMIIAVGYRVRSARGIQFRQWATERLDEYLTKGFAIDDERLKGTGGGDYWKELLNRIRDIRSSEKALYRQVLDLYATSQDYNPKSSESQTFFAAVQNKLHYAASRQTAAELIYSRADSSKDFMGLTTFQGAIPTLNEAKIAKNYLTEDELFRLNRLVSAFFDLAEIKAQEQSPMYMRDWIAELDKFSGLYGQGTLQGAGSISRKQAEQKAEREYRAYEARILSPVEQAYLESVKALEKTAVQQIKQKKDRTK | not soluble
MSIISTKYLLQDAQANGYAVPAFNIHNAETIQAILEVCSEMRSPVILAGTPGTFKHIALEEIYALCSAYSTTYNMPLALHLDHHESLDDIRRKVHAGVRSAMIDGSHFPFAENVKLVKSVVDFCHSQDCSVEAELGRLGGVEDDMSVDAESAFLTDPQEAKRFVELTGVDSLAVAIGTAHGLYSKTPKIDFQRLAEIREVVDVPLVLHGASDVPDEFVRRTIELGVTKVNVATELKIAFAGAVKAWFAENPQGNDPRYYMRVGMDAMKEVVRNKINVCGSANRISA | soluble
MSIKFELIDVPIPQGTNVIIGQAHFIKTVEDLYEALVTSVPGVKFGIAFCEASGKRLVRHEANDEELRNLAIDLCKKIAAGHVFVIYIRNAWPINVLNAIKNVPEVVRIFAATANPLKVIVAEVEPERRGVVGVVDGHSPLGVETEKDREERKKFLREVVKYKL | soluble

Source: the DeepSol protein solubility set
